# From the DeepSol protein solubility set
# Experiment: soluble on expression in E. coli; label from the status in PepcDB or PDB records
row,Sequence,soluble on expression in E. coli
1,MGHHHHHHSHQVLTTSRKPGRKTRRFAKVLARFFNWKYVNRGKLSLEDLAGIAERFWIISEVKGNPAILNLYERGEKTLEVSFTLSNVNKIKMDDSPAVFKGKAPIDPLVFGAIPQTKAGLKLTRKVEFRKKVVVKGDEWLFFYDDEMLFKLRILKISRSS,soluble
2,MGHHHHHHSHRGAGRVSRWPPPHWLEAWRVSPRPLSPLSPATFGRGFIAVAVIPGLWARGRGCSSDRLPRPAGPARRQFQAASLLTRGWGRAWPWKQILKELDECYERFSRETDGAQK,not soluble
3,MGHHHHHHSHRNLDSRTFITIGDRNFEVEADDLVTISELGRGAYGVVEKVRHAQSGTIMAVKRIRATVNSQEQKRLLMDLDINMRTVDCFYTVTFYGALFREGDVWICMELMDTSLDKFYRKVLDKNMTIPEDILGEIAVSIVRALEHLHSKLSVIHRDVKPSNVLINKEGHVKMCDFGISGYLVDSVAKTMDAGCKPYMAPERINPELNQKGYNVKSDVWSLGITMIEMAILRFPYESWGTPFQQLKQVVEEPSPQLPADRFSPEFVDFTAQCLRKNPAERMSYLELMEHPFFTLHKTKKTDIAAFVKEILGEDS,not soluble
4,MGHHHHHHSHVAQFPTPFGGSLDTWAITVEERAKHDQQFHSLKPISGFITGDQARNFFFQSGLPQPVLAQIWALADMNNDGRMDQVEFSIAMKLIKLKLQGYQLPSALPPVMKQQPVAISS,soluble
5,MGHHHHHHSHVAVQTASKQVDGDYVVSEWSEIIEFCTADYSKVHLTQLLEKAEVIAGRMLKFSVFYRNQHKEYFDYVREHHGNAMQPSVKDNSGSHGSPISGKLEGIFFSCSTEFNTGKPPQDSPYGRYRFEIAAEKLFNPNTNLYFGDFYCMYTAYHYVILVIAPVGSPGDEFCKQRLPQLNSKDNKFLTCTEEDGVLVYHHAQDVILEVIYTDPVDLSLGTVAEITGHQLMSLSTANAKKDPSCKTCNISVGR,not soluble
6,MGHHHHHHSHVHMKDFFYFRNHFCITFELLGINLYELMKNNNFQGFSLSIVRRFTLSVLKCLQMLSVEKIIHCDLKPENIVLYQKGQASVKVIDFGSSCYEHQKVYTYIQSRFYRSPEVILGHPYDVAIDMWSLGCITAELYTGYPLFPGENEVEQLACIMEVLGLPPAGFIQTASRRQTFFDSKGFPKNITNNRG,soluble
7,MGHHHHHHSHYPPIEFDKYKCKNSEDFYLFVGRLWHEKRPEEAIRGCIKAKKKIVVIGSGYLEKYLRDKYGKNPYVEIKGFVSEEEKVDLLASCKAVIYPCIAEDFGIVPIEAFASGKPVIADNSGFPPYVVNEERGIITDCSNPDNIAKAIEELEKKKYDPDKIREFAKQF,soluble
8,MGIFETMSQVRRLPQALAAAVATPPALAGSGTLRGLIGLDDSLGEAVTTRAEALTIPAVLRARNLLSTTVARTPLVCDGTLPPFVPVAAPPGAATMQTPFHRMLATADDLLFNGVACWALDRDESGTCIGAIHIPLDTWQIEENTVRVNGKAVDPMEVCIFVGIHGGLLTHASETFTDARNLVRAAARVAQNPAALIELRQTNNAQLSPDDVDRIINGYVAARRGRNSGVGFSSSGLEVHEHEMAKENLLIEGRNAAAVDVARAMNVPAAFIDATVGGTSLSYQNAASRMIELVTFGVEPLMSAIEARLNQPDMHADHLANPLKFDPAALLDAIPTTPTIGAQPHGENS,not soluble
9,MGITVMARIDNYEQRFGGIGRLYTPDSLARLRQAHICVIGIGGVGSWVVEALARSGIGELTLIDMDDICVTNINRQLPAMSGTIGKLKTEVMSERVKLINPECTVNIIDDFISPENQSDYLNRGYDYVIDAIDNVKTKASLIAYCKRNKINVITIGGAGGQTDPTQIQIADLSKTIQDPLLAKVRSVLRKDYNFSQNPKRKFSIDAVFSTQPLIFPQMTEGCSTSATMNCANGFGAATMITATFGFFAVSRVIDKLLKKKSLEHHHHHH,not soluble
10,MGKGDSIIVAVRVRPFNDREKTRNCKLVIEMPDEETTVIRDPKTNDEKRFTYDHSYWSHDGFSEKKNGYLEPTDPHYADQRRVFEDLGRGVLANAWAGYNCSLFAYGQTGSGKSYSIVGFKNNKGIVPIVCEELFKQIADNKKKNMQFEVFVSMMEIYCEKVRDLLSSTPPPKGGLKVREHPKNGFYVENLTTVPVNSFKEIEAKIEEGTKSRTIAATQMNATSSRAHTIVKITFNQKSSKQAGGTSMKKSEINLVDLAGSERQSAAGTEGDRLKEGIVINQSLTTLGRVIKALHDSQKAKSGKKTQIPYRDSVLTCLLKNALGGNSKTIMIAAISPADINFEETLSTLRFADRAKSIKTNAVVNENQTERALRELREENLRLQSQIQGGTAGDASNEEIEKLRRQLAENQKEMEEMEKSWQQKIAEEAAKHASGASEKVEMEAKKKKMCHLWNLNEDPALTNVIVHFIPVGESVVGNKPTSSGNFIQMSGLSILPQHVTLKNDGNNQIHLSPCSEDLDIFINGKPVHGETQLQQNDRVFFGGNHLYVFNNPTKKGIRTDITYENAQAEIAQNHAAALGNRGLGGGSKRDLILEEELMSTLPLVQRANAMATELGRNVKFEIVLVSPEMRGLTSGLTEIWVKVHNISEDTYFLWEKSRFMNRYYGMQEMYEAKQDGSEDWNMPKERDPFYEPPDSPVFIASSVVFLQSLAYLIDVEEQFPIVDLSGQEIGLLTVGLSPCSTTGKELRGEYVEDPDQLIGKNIAFKVKVISAVGLPRRILKSNCKYRFFGSKKMTTTATVSGNTPAYGHEETFQFKPVTKEVADYLANSNLYITFWGTQRPRGASSRKNSISTIGSNEAREGPNKAKRVERLVHQAKTSENRNISVKALETVLKGVDDNENRKTRKQSMKKAGSTTIKSRSGSKKPKAK,not soluble
11,MGKHKVGAVFLAGVLAMGTVMTGCSGKDETEGKTVIEMVQYKPEAVDIFEQFQDEFNATHDDIYLKIDSPNDAMTILKTRFIREDNPDIIGIGGDINYSNFLDADMLMDISDFEGLNDIKEKYLEMNKDLEYVPKDGVYAVPYMANAAGILFNRDMFEEHGWEVPTTWTEFTNLCDQIQSEGIQPLYFGFKDTWTTLAPWNAIAVSLCDSDLTYQVNSGKTTFAENYREVAEKEKALLTYGQKDPVSQGYNDACTAFARGASAMFTIGSYAISQIKSVNPDMNIGSFVFPANEDADKNVLNSGNDLMFCVMKDCKNKEAAYEVLSYMLEDENVKKYLNAQSAVPCKKGDFEVTPELEEMRDYIENGIVADYQDHHYPSEMSVDAMIQTYLMDDSADATDTFMKRFDKEWIRYNRDIVAKVKAYEEGNDHE,not soluble
12,MGKKMVVALGGNAILSNDASAHAQQQALVQTSAYLVHLIKQGHRLIVSHGNGPQVGNLLLQQQAADSEKNPAMPLDTCVAMTQGSIGYWLSNALNQELNKAGIKKQVATVLTQVVVDPADEAFKNPTKPIGPFLTEAEAKEAMQAGAIFKEDAGRGWRKVVPSPKPIDIHEAETINTLIKNDIITISCGGGGIPVVGQELKGVEAVIDKDFASEKLAELVDADALVILTGVDYVCINYGKPDEKQLTNVTVAELEEYKQAGHFAPGSMLPKIEAAIQFVESQPNKQAIITSLENLGSMSGDEIVGTVVTK,soluble
13,MGKNLQALAQLYKNALLNDVLPFWENHSLDSEGGYFTCLDRQGKVYDTDKFIWLQNRQVWTFSMLCNQLEKRENWLKIARNGAKFLAQHGRDDEGNWYFALTRGGEPLVQPYNIFSDCFAAMAFSQYALASGEEWAKDVAMQAYNNVLRRKDNPKGKYTKTYPGTRPMKALAVPMILANLTLEMEWLLPQETLENVLAATVQEVMGDFLDQEQGLMYENVAPDGSHIDCFEGRLINPGHGIEAMWFIMDIARRKNDSKTINQAVDVVLNILNFAWDNEYGGLYYFMDAAGHPPQQLEWDQKLWWVHLESLVALAMGYRLTGRDACWAWYQKMHDYSWQHFADPEYGEWFGYLNRRGEVLLNLKGGKWKGCFHVPRAMYLCWQQFEALS,soluble
14,MGKTSRDKRDIYYRLAKENKWRARSAFKLMQIDDEFQILKGVRRAVDLCAAPGSWSQVLSKRLYEEDQEAKIVAIDLQPMAPIPGVIQLQGDITSVDTANQVIKHFSGEKSDIVICDGAPDVTGIHSLDEFMQAELILAAFNITSHVLKEGGNFLAKIFRSRNSSLLYAQMKKYFKKVYLAKPRSSRQSSCEAFVLCLDYSPPEGFVPTMGKTSLDATDASAISPDIIDGFVTCGDLSGWDSEKSYPLDIDACFPKGEIDEEQKKRYEFKDVVQPPTDPAYKAALDKKKSGVFAKMSADLNRQLKAELSRGKDQKKTPAENVPSVEELEKAAEKFQL,not soluble
15,MGKYFGTDGVRGVANKELTPELAFKIGRFGGYVLTKDTDRPKVIIGRDTRISGHMLEGALVAGLLSTGAEVMRLGVISTPGVAYLTKALDAQAGVMISASHNPVQDNGIKFFGSDGFKLTDEQEAEIEALLDKEVDELPRPTGTNLGQVSDYFEGGQKYLQYIKQTVEEDFSGLHIALDCAHGATSSLAPYLFADLEADISTMGTSPNGMNINDGVGSTHPEVLAELVKEKGADIGLAFDGDGDRLIAVDEKGNIVDGDQIMFICAKYMKETGQLKHNTVVSTVMSNLGFYKALEANGITSDKTAVGDRYVMEEMKRGGYNLGGEQSGHIILLDYITTGDGMLSALQLVNIMKMTKKPLSELAGEMTKFPQLLVNVRVTDKKLALENEKIKEIIRVVEEEMNGDGRILVRPSGTEPLIRVMAEAPTQEVCDAYVHRIVEVVKAEVGAE,not soluble
16,MGLDDALIFTRVVEYHSFTQAAQSLGMQKSTVSRRIALLEERLGVRLLNRTTRKLRLTEVGQAYYERCRQIMHDFAEAEQAVMQLQQAPSGLLRITSPIEFGQMFLASLLGDFMRQYPQITAEVELASRSVDPLQEGVDIVIMVGQPEDSTLVARRLLSTSRWLCASPDYLAAHGTPTSVAELAGHRAVLLSTDSQRYWPLSGDSLPCQRVLSCNNITFAREAVVAGAGIAALPALICAESVHSGRLVRLLADVPLPVGELYAVYPSRRFQAMKVKAFLDFLISRLPADTGRLLEPEAARLITSRP,not soluble
17,MGLFTTRQLLGYTEQKVKFNPLFLSLFFRRTVTFPTQEVMLDKITGKTPIAAYVSPVVGGKVLRNRGGETRVLRPGYVKPKHEVNYAQVVERLPGEDPARLNDPAYRRLRILTDNLKQEEKAIVQVEEMQAVSAVLNGKYTMQGEQFDTVEVDFGRSAGNNIIQATGKKWSEQDRETFDPTYDLDMYCDQASGLINIAVMDGKVWRLLNGFKLFREKLDTRRGSNSQLETAVKDLGAVVSFKGYYGDLAIVVAKTSYVADNGTEKRYLPEGTLVLGNTAAEGIRCYGAIQDSQALAEGIVAATRYPKHWLTVGDPANEYTMTQSAPLMVLPDPDEFVIVTVG,not soluble
18,MGLLKDLSSARDKIERIYGLNKEKLLLLAKVKEGFETSVFDFPFKNIQPDSPYFVCLDPPCKKESAYNKVIGDKNRTVYHEINKTEFENMIKLRTKRLKLLIGEVDAEVSTGDKIEFPVLANGKRRGFIYNVGGLVTDIAWLNIEENTDIGKDIQYLAVAVSQYMDEPLNEHLEMFDKEKHSSCIQIFKMNTSTLHCVKVQTIVHSFGEVWDLKWHEGCHAPHLVGCLSFVSQEGTINFLEIIDNATDVHVFKMCEKPSLTLSLADSLITTFDFLSPTTVVCGFKNGFVAEFDLTDPEVPSFYDQVHDSYILSVSTAYSDFEDTVVSTVAVDGYFYIFNPKDIATTKTTVSRFRGSNLVPVVYCPQIYSYIYSDGASSLRAVPSRAAFAVHPLVSRETTITAIGVSRLHPMVLAGSADGSLIITNAARRLLHGIKNSSATQKSLRLWKWDYSIKDDKYRIDSSYEVYPLTVNDVSKAKIDAHGINITCTKWNETSAGGKCYAFSNSAGLLTLEYLSLEHHHHHH,soluble
19,MGLLVDGRWQDQWYESSKDGAFQRENAQRRNWVTRDGQAGPSGEGGFAAEAGRYHLYVSLACPWAHRTLILRKLKGLEKLIDVSVVSWLMLENGWTFDQQKGSSGDALDDFQFFHQRYTADDPRYTGRVTVPVLWDKQQQRIVSNESAEIIRMFNAAFDELTGNTLDFYPSALQSSIDELNEQIYPKVNNGVYRAGFATSQGAYEEAFDDVFAELDVLENLLGEKRYLTGKHLTEADIRLFTTIVRFDAVYYSHFKCNLRRIADYPNLSNWLRELYQWPGIAETVDFEHIKGHYYASHRTINPTGIIPKGPALDLQAGHDRERLSGEGAWSK,not soluble
